From patent publication US20130230517A1

Target: Purified recombinant HuFCRN/B2MG, biotinylated (human) (UniProt P55899)
Assay: BLI (ForteBio Octet); biotinylated HuFCRN/B2MG on SA biosensors

Sequence of UniProt P55899 (P55899 24-297 limits assumed, chain 1 of 2): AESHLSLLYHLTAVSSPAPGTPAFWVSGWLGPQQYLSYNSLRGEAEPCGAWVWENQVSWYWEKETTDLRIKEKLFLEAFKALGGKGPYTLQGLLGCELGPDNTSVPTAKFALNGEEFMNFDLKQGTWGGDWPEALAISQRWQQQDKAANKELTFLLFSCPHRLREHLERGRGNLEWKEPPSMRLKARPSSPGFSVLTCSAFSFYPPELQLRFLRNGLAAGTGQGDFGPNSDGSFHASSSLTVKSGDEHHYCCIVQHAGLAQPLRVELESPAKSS
Sequence of UniProt P55899 (P61769 21-119 limits assumed, chain 2 of 2, further chain): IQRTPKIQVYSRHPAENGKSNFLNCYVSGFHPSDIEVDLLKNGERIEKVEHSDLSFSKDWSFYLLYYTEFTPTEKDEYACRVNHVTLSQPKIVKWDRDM

Substance: RITUXAN (Genentech), non-fused anti-CD20Ab (antibody)
- Kd: 69.7 nM
